Legend:
HLA-B*44 = biological target: T1, HLA-B*44 (human); assay: UV peptide-exchange ELISA; ++ = yield >20%
T1 construct: MHC monomer made peptide-receptive by UV cleavage of a UV-sensitive ligand; also called peptide-receptive MHC class I monomer
From the text: (§1) Candidate peptides for T cell based therapies according to the present invention were further tested for their MHC binding capacity (affinity). The individual peptide-MHC complexes were produced by UV-ligand exchange, where a UV-sensitive peptide is cleaved upon UV-irradiation, and exchanged with the peptide of interest as analyzed. Only peptide candidates that can effectively bind and stabilize the peptide-receptive MHC molecules prevent dissociation of the MHC complexes. To determine the yield of the exchange reaction, an ELISA was performed based on the detection of the light chain (β2m) of stabilized MHC complexes. The assay was performed as generally described in Rodenko et al. (Rodenko et al., 2006).
(§2) 96 well MAXISorp plates (NUNC) were coated over night with 2 ug/ml streptavidin in PBS at room temperature, washed 4× and blocked for 1 h at 37° C. in 2% BSA containing blocking buffer. […] Peptide-MHC monomers of the UV-exchange reaction were diluted 100-fold in blocking buffer. Samples were incubated for 1 h at 37° C., washed four times, incubated with 2 ug/ml HRP conjugated anti-β2m for 1h at 37° C., washed again and detected with TMB solution that is stopped with […]. Absorption was measured at 450 nm.

HLA-A*01 = biological target: T2, HLA-A*01 (human); assay: UV peptide-exchange ELISA; ++ = yield >20%
T2 construct: MHC monomer made peptide-receptive by UV cleavage of a UV-sensitive ligand; also called peptide-receptive MHC class I monomer
From the text: as §1, §2

HLA-A*24 = biological target: T3, HLA-A*24 (human); assay: UV peptide-exchange ELISA; + = yield >10%
T3 construct: MHC monomer made peptide-receptive by UV cleavage of a UV-sensitive ligand; also called peptide-receptive MHC class I monomer
From the text: as §1, §2

HLA-B*07 = biological target: T4, HLA-B*07 (human); assay: UV peptide-exchange ELISA; ++ = yield >20%
T4 construct: MHC monomer made peptide-receptive by UV cleavage of a UV-sensitive ligand; also called peptide-receptive MHC class I monomer
From the text: as §1, §2

## MEVPVIKI [MEVPVIKI (SEQ ID NO: 332)]
HLA-B*44
  peptide exchange yield: 20 to 50%

## GSSDSSTLPKL [GSSDSSTLPKL (SEQ ID NO: 147)]
HLA-A*01
  peptide exchange yield: 20 to 50%

## AENLFRAF [AENLFRAF (SEQ ID NO: 366)]
HLA-B*44
  peptide exchange yield: 20 to 50%

## STIRGELFFF [STIRGELFFF (SEQ ID NO: 12)]
HLA-A*24
  peptide exchange yield: 10 to 20%

## ILKEDPFLF [ILKEDPFLF (SEQ ID NO: 19)]
HLA-A*24
  peptide exchange yield: 10 to 20%

## MPLLWLRGF [MPLLWLRGF (SEQ ID NO: 273)]
HLA-B*07
  peptide exchange yield: 20 to 50%

## QEQDVDLVQKY [QEQDVDLVQKY (SEQ ID NO: 325)]
HLA-B*44
  peptide exchange yield: 20 to 50%

## GELALKKKI [GELALKKKI (SEQ ID NO: 371)]
HLA-B*44
  peptide exchange yield: 20 to 50%

## TEFPIIKMY [TEFPIIKMY (SEQ ID NO: 488)]
HLA-B*44
  peptide exchange yield: 20 to 50%

## KELEATKQY [KELEATKQY (SEQ ID NO: 335)]
HLA-B*44
  peptide exchange yield: 20 to 50%

## FPQKFIDLL [FPQKFIDLL (SEQ ID NO: 288)]
HLA-B*07
  peptide exchange yield: 20 to 50%

## KEVDPAGHSY [KEVDPAGHSY (SEQ ID NO: 322)]
HLA-B*44
  peptide exchange yield: 20 to 50%

## ASSSGPMRWW [ASSSGPMRWW (SEQ ID NO: 336)]
HLA-B*44
  peptide exchange yield: 20 to 50%

## IQMDEPMAF [IQMDEPMAF (SEQ ID NO: 43)]
HLA-A*24
  peptide exchange yield: 10 to 20%

## LIFMLANVF [LIFMLANVF (SEQ ID NO: 39)]
HLA-A*24
  peptide exchange yield: 10 to 20%

## HPMIDINGIIVF [HPMIDINGIIVF (SEQ ID NO: 278)]
HLA-B*07
  peptide exchange yield: 20 to 50%

## HPELVNHIVF [HPELVNHIVF (SEQ ID NO: 267)]
HLA-B*07
  peptide exchange yield: 20 to 50%

## FPVTSIFHTF [FPVTSIFHTF (SEQ ID NO: 284)]
HLA-B*07
  peptide exchange yield: 20 to 50%

## TEGIIMKDF [TEGIIMKDF (SEQ ID NO: 372)]
HLA-B*44
  peptide exchange yield: 20 to 50%

## ATDLVVLDRY [ATDLVVLDRY (SEQ ID NO: 136)]
HLA-A*01
  peptide exchange yield: 20 to 50%

## SSDSSTLPKL [SSDSSTLPKL (SEQ ID NO: 178)]
HLA-A*01
  peptide exchange yield: 20 to 50%

## YPENGVVQM [YPENGVVQM (SEQ ID NO: 469)]
HLA-B*07
  peptide exchange yield: 20 to 50%

## SDMVRFHLF [SDMVRFHLF (SEQ ID NO: 355)]
HLA-B*44
  peptide exchange yield: 20 to 50%

## GEFPVRVQV [GEFPVRVQV (SEQ ID NO: 368)]
HLA-B*44
  peptide exchange yield: 20 to 50%

## AEDEPAAAHL [AEDEPAAAHL (SEQ ID NO: 334)]
HLA-B*44
  peptide exchange yield: 20 to 50%

## TEFTTVLY [TEFTTVLY (SEQ ID NO: 343)]
HLA-B*44
  peptide exchange yield: 20 to 50%

## YLPQHTIETY [YLPQHTIETY (SEQ ID NO: 199)]
HLA-A*01
  peptide exchange yield: 20 to 50%

## GEVSGLTKDF [GEVSGLTKDF (SEQ ID NO: 480)]
HLA-B*44
  peptide exchange yield: 20 to 50%

## GLNTGSALSY [GLNTGSALSY (SEQ ID NO: 146)]
HLA-A*01
  peptide exchange yield: 20 to 50%

## AEEEIMKKI [AEEEIMKKI (SEQ ID NO: 476)]
HLA-B*44
  peptide exchange yield: 20 to 50%
